Measured values as given in patent publication US20210238276A1 (INTEGRAL MOLECULAR, published 2021).

T1: human GLUT1 (hsGLUT1) (human, UniProt P11166 1-492)
T1 construct: whole, on cells
T1 sequence (looked up): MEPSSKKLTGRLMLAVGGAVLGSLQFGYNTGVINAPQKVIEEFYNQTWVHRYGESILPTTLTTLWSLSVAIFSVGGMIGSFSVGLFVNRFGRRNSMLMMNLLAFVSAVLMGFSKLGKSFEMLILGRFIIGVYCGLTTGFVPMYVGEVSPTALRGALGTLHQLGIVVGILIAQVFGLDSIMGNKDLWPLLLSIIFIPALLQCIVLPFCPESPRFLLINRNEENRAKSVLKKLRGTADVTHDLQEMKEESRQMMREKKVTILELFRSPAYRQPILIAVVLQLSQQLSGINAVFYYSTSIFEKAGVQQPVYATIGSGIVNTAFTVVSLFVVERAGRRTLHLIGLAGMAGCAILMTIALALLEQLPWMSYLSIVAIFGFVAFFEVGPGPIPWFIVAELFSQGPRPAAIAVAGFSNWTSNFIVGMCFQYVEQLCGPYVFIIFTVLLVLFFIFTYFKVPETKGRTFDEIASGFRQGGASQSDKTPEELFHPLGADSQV

T2: human GLUT2 (hsGLUT2) (human, UniProt P11168 1-524)
T2 construct: whole, on cells
T2 sequence (looked up): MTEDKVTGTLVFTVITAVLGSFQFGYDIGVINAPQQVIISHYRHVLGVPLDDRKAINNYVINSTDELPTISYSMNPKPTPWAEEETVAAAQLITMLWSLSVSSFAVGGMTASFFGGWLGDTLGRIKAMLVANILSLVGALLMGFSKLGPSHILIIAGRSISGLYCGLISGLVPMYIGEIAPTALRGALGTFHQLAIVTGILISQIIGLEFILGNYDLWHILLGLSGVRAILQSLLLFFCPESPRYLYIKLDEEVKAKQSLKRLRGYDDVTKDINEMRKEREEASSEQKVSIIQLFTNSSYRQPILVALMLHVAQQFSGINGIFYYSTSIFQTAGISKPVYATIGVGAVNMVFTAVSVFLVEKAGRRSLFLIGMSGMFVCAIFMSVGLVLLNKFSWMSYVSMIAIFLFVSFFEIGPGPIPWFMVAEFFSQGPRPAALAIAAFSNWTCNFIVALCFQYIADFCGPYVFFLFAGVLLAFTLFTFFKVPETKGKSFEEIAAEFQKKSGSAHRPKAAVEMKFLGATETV

T3: mouse GLUT1 (mmGLUT1) (mouse, UniProt P17809 1-492)
T3 construct: whole, on cells
T3 sequence (looked up): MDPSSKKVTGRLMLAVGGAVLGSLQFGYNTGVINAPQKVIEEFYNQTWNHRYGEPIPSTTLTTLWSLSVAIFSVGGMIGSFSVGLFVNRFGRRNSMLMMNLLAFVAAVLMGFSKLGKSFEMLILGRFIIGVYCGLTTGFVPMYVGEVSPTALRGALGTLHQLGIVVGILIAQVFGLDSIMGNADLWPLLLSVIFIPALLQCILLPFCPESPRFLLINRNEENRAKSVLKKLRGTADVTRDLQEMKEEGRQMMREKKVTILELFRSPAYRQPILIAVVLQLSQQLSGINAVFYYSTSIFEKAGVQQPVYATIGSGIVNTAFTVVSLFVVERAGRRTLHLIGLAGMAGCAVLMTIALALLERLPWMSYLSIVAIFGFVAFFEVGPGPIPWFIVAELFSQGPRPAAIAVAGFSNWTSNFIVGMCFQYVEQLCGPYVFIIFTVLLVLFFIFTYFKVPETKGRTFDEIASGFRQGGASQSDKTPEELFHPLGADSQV

T4: human GLUT3 (hsGLUT3) (human, UniProt P11169 1-496)
T4 construct: whole, on cells
T4 sequence (looked up): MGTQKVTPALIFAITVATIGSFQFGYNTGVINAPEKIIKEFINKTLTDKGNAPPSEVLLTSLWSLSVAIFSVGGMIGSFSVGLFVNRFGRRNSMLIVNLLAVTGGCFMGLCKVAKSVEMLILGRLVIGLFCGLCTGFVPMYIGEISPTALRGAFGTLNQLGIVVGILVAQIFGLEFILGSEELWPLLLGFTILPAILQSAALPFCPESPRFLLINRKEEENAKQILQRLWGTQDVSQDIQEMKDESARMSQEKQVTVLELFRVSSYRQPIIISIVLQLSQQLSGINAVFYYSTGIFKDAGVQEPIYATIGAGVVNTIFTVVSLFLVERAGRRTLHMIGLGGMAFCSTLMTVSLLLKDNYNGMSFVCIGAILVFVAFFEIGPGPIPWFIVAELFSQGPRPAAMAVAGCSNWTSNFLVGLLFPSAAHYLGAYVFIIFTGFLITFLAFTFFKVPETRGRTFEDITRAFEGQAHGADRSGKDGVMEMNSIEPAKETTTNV


Key:
Assay in all cases: flow cytometry, transfected HEK-293T
[1] = molecular target: T1, human GLUT1 (hsGLUT1)
Experimental: (§1) HEK-293T cells were transfected by CaPO₄ with plasmids in 6-well culture plates (Falcon) at 750,000 cells/well. At 48 hours post transfection, cells were stained with anti-V5 and anti-GLUT4 MAbs (purified scFv, 2 μg/ml) followed by biotinylated goat anti-mouse or human antibody (1:500) and streptavidin-PerCP (1:500). Fluorescence was detected using an Intellicyt high-throughput flow cytometer (HTFC; Intellicyt, Albuquerque, N. Mex.). For cell permeabilization, cells were treated with saponin at 0.1% in PBS for 20 minutes. To discriminate intact (live) and permeabilized (dead) cells without the use of detergent, propidium iodide (PI) was added to HEK-293T cells at 1 ug/ml just prior to flow cytometry. Where indicated, cytochalasin B (Sigma) was used at a final concentration of 10 uM and phloretin (Sigma) was used at a final concentration of 100 uM, each added in 10% NGS for 30 minutes prior to antibody staining as well as included with the primary antibody.

[2] = molecular target: T2, human GLUT2 (hsGLUT2)
Experimental: as §1

[3] = molecular target: T3, mouse GLUT1 (mmGLUT1)
Experimental: as §1

[4] = molecular target: T4, human GLUT3 (hsGLUT3)
Experimental: as §1

Binder | binding result [1] | binding result [2] | binding result [3] | binding result [4]
AB108 (Fc fusion, Bivalent scFv-Fc; also called MAb AB108; not shown: Fc fragment of human IgG1, cloned in frame with the scFv) scFv: ALTQPSSVSANLGGTVKITCSGSSGSYGWYQQKAPGSAPVTLIYRNDKRPSDIPSRFSGSESGSTGTLTITGVQAEDEAVYFCGGYDSSAGYAAFGAGTTLTVLGQSSRSSGGGGSSGGGGSAVTLDESGGGLQTPGGALSLVCKASGFTFSSHGMGWVRQAPGKGLEWVGSISTGRYTFYAPAVKGRATISRDNGQSTLRLQLNNLRAEDTGTYYCTKCAGLNGCGGGEIDAWGHGTEVIVSS | no binding (tested: 2 µg/ml) | no binding (tested: 2 µg/ml) | no binding (tested: 2 µg/ml) | no binding (tested: 2 µg/ml)
AB105 (Fc fusion, Bivalent scFv-Fc; also called MAb AB105; not shown: Fc fragment of human IgG1, cloned in frame with the scFv) scFv: ALTQPSSVSANPGETVEITCSGDSSYYGWYQQKSPGSAPVTVIYANTNRPSDIPSRFSGSASGSTATLTITGVQAEDEAVYYCGSADSTYAGIFGAGTTLTVLGQSSRSSGGGGSSGGGGSAVTLDESGGGLQTPGGALSLICKASGFTFSSYTMNWVRQAPGKGLEWVGVISNSGRTTNYGAAVQGRATISRDNGQSTVRLQLNNLRAEDTGTYYCAKSSASASCAWWAGRSYPCSANRIDAWGHGTEVIVSS | no binding (tested: 2 µg/ml) | no binding (tested: 2 µg/ml) | no binding (tested: 2 µg/ml) | no binding (tested: 2 µg/ml)
AB111 (Fc fusion, Bivalent scFv-Fc; also called MAb AB111; not shown: Fc fragment of human IgG1, cloned in frame with the scFv) scFv: ALTQPSSVSANPGETVKITCSGSGSWYGWFQQKSPGSAPVTVIYSNDKRPSDIPSRFSGSKSGSTSTLTITGVQVEDEAVYYCGNWDIFGAGTTLTVLGQSSRSSGGGGSSGGGGSAVTLDESGGGLQTPGGALSLVCKASGFTFSSHGMGWVRQAPGKGLEWVASISTGRYTFYAPAVKGRATISRDNGQSTVRLQLNNLRAEDTATYYCTKCAGLNGCGGGEIDAWGHGTEVIVSS | no binding (tested: 2 µg/ml) | no binding (tested: 2 µg/ml) | no binding (tested: 2 µg/ml) | no binding (tested: 2 µg/ml)
